The results in this text go back to publication PMC5038948, “The Role of Neutrophil Proteins on the Amyloid Beta-RAGE Axis” (PLoS ONE, 2016).

Where two headings read alike, the source gives them in different places.

One assay addresses T1, Aβ1–42 binding to RAGE (Homo sapiens, UniProt Q15109).
T1 construct: purchased R&D Systems Inc. (RAGE Fc chimera); Bachem (Aβ1–42)
The assay can be described thus: ELISA: competitive inhibition of Aβ1–42 binding to RAGE by neutrophil proteins added simultaneously. How it is done: (§1) The plates were washed three times with PBS containing 0.05% tween (PBST), and then blocked in PBST containing 3% bovine serum albumin (BSA). Indicated proteins were added to the plate in 50 μL PBST containing 0.1% BSA and incubated at 37°C for 70 mins. Wells were washed four times with PBST, and then incubated with 50 μL of goat anti-RAGE primary antibody (0.5 μg/ml) or mouse anti-APP/Aβ antibody (0.5 μg/ml-1 μg/ml) for 1 h. After washing the wells four times with PBST, 50 μL of rabbit anti-goat at 0.16 μg/ml or donkey anti-mouse at 0.04–0.08 μg/ml secondary antibodies were added for 1 h at room temperature.
(§2) All statistics were performed using Graph Pad Prism 6 (GraphPad Software, La Jolla, CA). Data are represented as mean± SEM of results. […] Two-way analysis of variances (ANOVAs) were performed with Dunnett’s multiple comparison tests. […] Kruskal-Wallis tests with Dunn’s multiple comparison tests were used to analyze binding by Far-Western dot blotting (see figure legends 3 and 6 for details on multiple comparison tests). […] To obtain dissociation constants (Kd), half-maximal inhibitory concentrations (IC50), and maximum absorbance values, BSA was subtracted as background and values were fitted to a curve of nonlinear regression.

In assay [1] the target is T2, Aβ1–42 (Homo sapiens, UniProt P05067).
T2 construct: Amyloid beta 1–42 (Aβ1–42), a known RAGE ligand; purchased Bachem (Torrance, CA)
The assay can be described thus: ELISA: binding of Aβ1–42 to coated neutrophil proteins. The note with it: for Log binding (Aβ1–42): 0.5 μg/well coated protein, with protease inhibitor cocktail, log OD 492 nm, mean ± SEM, n = 3. How it is done: as §1, §2

Assay [2] deals with T2, Aβ1–42. The assay can be described thus: Far-Western dot blot: binding of Aβ1–42 to spotted neutrophil proteins. The note with it: Aβ1–42 […] (56 nM) with protease inhibitor cocktail; 1 μg spotted protein. How it is done: After spotting, membranes were rinsed with ultrapure water, and Ponceau S (Sigma Aldrich) was used to stain for spotted proteins. Ponceau S was rinsed off with ultrapure water, and membrane blots were blocked for 2 h at room temperature in PBST containing 3% BSA. […] Blots were washed three times with PBST for 10 min, and then incubated with either rabbit anti-RAGE primary antibody (0.8μg/ml) or mouse anti-APP/Aβ (0.25μg/ml) for 2 h at room temperature. Blots were washed three times with PBST for 10 min, and then incubated with donkey anti-rabbit or donkey anti-mouse secondary antibodies at 0.04μg/ml for 45 min at room temperature. Blots were washed three times with PBST. Enhanced chemiluminescent or SuperSignal West femto maximum sensitivity substrates (Pierce) were used to develop blots. Mean dot densities were quantified and normalized to ponceau S dot densities using Image J software (National Institutes of Health (NIH), Bethesda, MD).
Blots were incubated with rocking overnight at 4°C.
All statistics were performed using Graph Pad Prism 6 (GraphPad Software, La Jolla, CA). Data are represented as mean± SEM of results. […] To obtain dissociation constants (Kd), half-maximal inhibitory concentrations (IC50), and maximum absorbance values, BSA was subtracted as background and values were fitted to a curve of nonlinear regression.

In assay [3] the target is T3, RAGE Fc chimera (Homo sapiens, UniProt Q15109). The assay can be described thus: ELISA: binding of RAGE to coated neutrophil proteins. The note with it: for Log binding (RAGE): wells coated 0.5 μg/well protein, log-transformed OD 492 nm, mean ± SEM. Also on record: purchased R&D Systems Inc. (Minneapolis, MN). How it is done:
as §1
Goat anti-RAGE primary antibody at 0.5 μg/ml was used to detect bound RAGE.
as §2

The target in assay [4] is T3, RAGE Fc chimera. The assay can be described thus: Far-Western dot blot: binding of RAGE to spotted proteins ± GM-0111. To be noted: 1 μg spotted protein (0.5 μg Aβ1–42). Further details: purchased R&D Systems Inc. (Minneapolis, MN). The method, then:
as §2

Assay [5] deals with T3, RAGE Fc chimera. The assay can be described thus: ELISA: Aβ1–42 binding to RAGE after pre-incubation of Aβ1–42 with neutrophil proteins. Further details: purchased R&D Systems Inc. (RAGE Fc chimera); Bachem (Aβ1–42). To be noted: for Kd: read-out: KD value for Aβ1–42 binding to RAGE. How it is done: as §1
In this set of experiments, the maxisorp plates were coated with RAGE Fc chimera (0.5 μg/well, 83.3 nM) overnight at 4°C.
as §2

T3 sequence (Q15109 with tags, fused parts or gaps limits assumed): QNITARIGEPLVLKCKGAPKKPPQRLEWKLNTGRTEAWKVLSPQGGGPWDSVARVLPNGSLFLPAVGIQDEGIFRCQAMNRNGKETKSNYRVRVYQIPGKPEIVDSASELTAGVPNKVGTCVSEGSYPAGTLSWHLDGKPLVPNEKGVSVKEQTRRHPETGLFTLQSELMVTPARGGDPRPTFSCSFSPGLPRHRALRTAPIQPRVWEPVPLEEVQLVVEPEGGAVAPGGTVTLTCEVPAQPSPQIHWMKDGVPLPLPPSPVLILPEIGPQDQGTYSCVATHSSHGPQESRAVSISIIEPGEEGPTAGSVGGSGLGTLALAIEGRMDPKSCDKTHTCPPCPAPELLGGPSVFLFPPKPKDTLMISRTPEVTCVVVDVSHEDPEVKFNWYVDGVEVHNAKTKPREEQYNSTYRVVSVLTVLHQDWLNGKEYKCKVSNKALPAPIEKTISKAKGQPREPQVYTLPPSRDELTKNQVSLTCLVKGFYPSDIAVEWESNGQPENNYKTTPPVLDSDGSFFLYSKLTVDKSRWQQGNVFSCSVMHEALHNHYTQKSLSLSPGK
T1 sequence (Q15109 with tags, fused parts or gaps limits assumed): as above

B1: cationic antimicrobial protein of 37kDa (protein)
chain: IVGGRKARPRQFPFLASIQNQGRHFCGGALIHARFVMTAASCFQSQNPGVSTVVLGAYDLRRRERQSRQTFSISSMSENGYDPQQNLNDLMLLQLDREANLTSSVTILPLPLQNATVEAGTRCQVAGWGSQRSGGRLSRFPRFVNVTVTPEDQCRPNNVCTGVLTRRGGICNGDGGTPLVCEGLAHGVASFSLGPCGRGPDFFTRVALFRDWIDGVLNNPGPGPA
notes: neutrophil protein purified from human neutrophils (Athens Research & Technology)
With B1, the “maximal inhibition of Aβ1–42 binding to RAGE in the absence of protease inhibitors” value with Aβ1–42 binding to RAGE (no protease inhibitors, highest dose of protein) is on record as “complete”. For the same molecule, the “inhibition of Aβ1–42 binding to RAGE in the presence of protease inhibitors” value with Aβ1–42 binding to RAGE (with protease inhibitor cocktail, Aβ1–42 11 nM) was “only partial”. Further, the “Log binding (Aβ1–42)” value in the assay with Aβ1–42 [1] (Aβ1–42 0 nM (background)) is reported as “• -0.907±0.139 • p = 0.005”; in the assay with Aβ1–42 [1] (Aβ1–42 3.47 nM) it was “• -0.556±0.047 • p<0.0001”; with Aβ1–42 [1] (Aβ1–42 13.89 nM), “• -0.138±0.047 • p<0.0001”; in the assay with Aβ1–42 [1] (Aβ1–42 27.78 nM), “• 0.137±0.043 • p<0.0001”; with Aβ1–42 [1] (Aβ1–42 55.56 nM), “• 0.304±0.039 • p<0.0001”. The “maximum absorbance value for Aβ1–42 binding” value with Aβ1–42 [1] (ELISA with protease inhibitors, BSA subtracted, nonlinear regression fit) was 2.86. The “binding of Aβ1–42 (far-Western dot blot)” value with Aβ1–42 [2] is given as “strong binding”. The “maximum absorbance value for RAGE binding” value with RAGE Fc chimera [3] (ELISA, BSA subtracted as background, nonlinear regression fit) is 2.49. For the same molecule, the “Log binding (RAGE)” value with RAGE Fc chimera [3] (RAGE 0 nM (background)) is reported as -0.623; with RAGE Fc chimera [3] (RAGE 0.83 nM) it was “• 0.112±0.041 • p<0.0001”; in the assay with RAGE Fc chimera [3] (RAGE 1.67 nM) it was “• 0.228±0.043 • p<0.0001”; with RAGE Fc chimera [3] (RAGE 3.33 nM) it was “• 0.325±0.064 • p<0.0001”. In the assay with RAGE Fc chimera [4], the “binding of RAGE (far-Western dot blot)” value was “strong binding”. Further, the “maximum absorbance (MA) for Aβ1–42 binding to RAGE” value came to 3.05 in the assay with RAGE Fc chimera [5] (Aβ1–42 pre-incubated with CAP37 500 ng/ml) and 3.70 in the assay with RAGE Fc chimera [5] (Aβ1–42 pre-incubated with CAP37 1 μg/ml). For the same molecule, the “maximum absorbance value for Aβ1–42 binding to RAGE” value in the assay with RAGE Fc chimera [5] (Aβ1–42 pre-incubated with CAP37 2 μg/ml) came out at 3.27 OD 492 nm. The values for the Kd with RAGE Fc chimera [5] (Aβ1–42 pre-incubated overnight 4°C with CAP37 500 ng/ml (21 nM)), with RAGE Fc chimera [5] (Aβ1–42 pre-incubated overnight 4°C with CAP37 1 μg/ml (42 nM)) and with RAGE Fc chimera [5] (Aβ1–42 pre-incubated overnight 4°C with CAP37 2 μg/ml (83 nM)) were 13.8 nM, 59.3 nM and 149 nM, respectively.
